Here are results for 5 molecules from patent US8258099B2, “Pin1-modulating compounds and methods of use thereof” (Max-Planck-Gesellschaft zur Foerderung der Wissenschaften …, priority 2004, dated 2012).

Usually Kd stands for the concentration at which binding is half-saturated. Lower therefore signals tighter binding.

In assay [1] the target is T1, interaction of MPM-2 antigens with GST-hPin1 (Homo sapiens, UniProt Q13526).
T1 construct: made in house
The experiment in a line: MPM-2 competition assay. It is filed as binding. Conditions: mitotic HeLa cell lysate, 8 μM GST-hPin1. How it is done:
FIG. 7 depicts the influence of peptide 17 on the interaction of MPM-2 antigens with hPin1. The indicated concentration of peptide 17 or its nonphosphorylated derivative (control) was incubated with an 8 μM solution of GST-hPin1. After addition of mitotic HeLa cell lysate, GST-hPin1 was extracted from the respective mixture using glutathione sepharose. Samples were analyzed regarding extracted GST-hPin1 and coprecipitated MPM-2 antigenes by SDS PAGE and western blot analysis. Untreated lysate of mitotic HeLa cells was loaded on the first line (extract). MPM-2 antigenes were detected using the monoclonal anti MPM-2 antibody (mouse). GST-hPin1 was detected using an anti hPin1 PPIase domain antiserum (rabbit). Horseradish peroxidase-conjugated antibodies from mouse or rabbit were used as secondary antibodies. […]
1.3 mM of Peptide 17 or its nonphosphorylated derivative were incubated with GST-hPin1 (8 μM) for 2 hours at 4° C. […] Following SDS-PAGE, the samples were analyzed by western blot analysis. GST-hPin1 and coextracted MPM-2 antigens were detected using an anti hPin1 PPIase domain antiserum (rabbit) or monoclonal anti MPM-2 antibody (Upstate Biotechnology) from mouse. […]
MPM-2 antigens are mitotic phosphoproteins that are specifically recognized by the monoclonal antibody MPM-2. […] The coextracted MPM-2 antigenes were detected after SDS PAGE by western blot analysis using the anti MPM-2 antibody. […]

In a further assay the test system is X. laevis embryos. As to the kind of experiment: Microinjection in X. laevis embryos, cell division. The assay is classed as in vivo. The conditions noted are these: microinjection at stage 2. As for the experimental part:
FIG. 8 depicts the blocking of cell division by the injection of peptide 17 in X. laevis embryos. 50-300 pmol of peptide 17 or 300 pmol of its nonphosphorylated derivative (control) dissolved in 10 nl PBS buffer were microinjected in the animal half of X. laevis embryos at stage 2 of development. Embryos with large and/or apoptotic appearing cells surrounded by normally developing cells were counted after further 5 hours (stage 8-9) of development. […] Each value is the average of four independent experiments.
FIGS. 9A-F depicts phenotypic analysis of X. laevis embryos after injection of peptide 17. 300 pmol of peptide 17 or its nonphosphorylated derivative dissolved in 10 nl PBS buffer were injected in the animal half of X. laevis embryos at stage 2 of development. 1.5 hour at stage 6 (A), 2.5 hours at stage 7 (B) and 4-5 hours at stage 8-9 (C, D) after injection enlarged cells became visible. Cells that are blocked in cell division are marked with a white arrow. Controls of uninjected embryos of stage 8-9 and embryos that were injected with 300 pmol of the nonphosphorylated derivative of peptide 17 are shown in panels E and F. The site where the nonphosphorylated derivative of peptide 17 was injected is marked with a white arrow (F).
FIGS. 10A-D depict the rescue of peptide 17 caused cell division block in X. laevis embryos by hPin1 (A, B) and different hPin1 variants (C, D). FIG. 10A depicts the time course of V5-tagged hPin1 expression was analyzed by preparation of X. laevis embryo lysate 1, 2 and 4 hours after injection of 1, 2 or 3 ng of V5-tagged hPin1 mRNA. In every case, the injected volume was 10 nl. Lysates were prepared in lysis buffer containing phosphatase and protease inhibitors. Samples were separated by SDS PAGE followed by western blotting. Endogenous XlPin1 and V5-tagged hPin1 were detected using an anti hPin1 PPIase domain antiserum as primary antibody followed by incubation with a horseradish peroxidase-conjugated secondary antibody. Visualization was done using the SuperSignal® substrate. […] In every case, the whole volume of injection was 10 nl. The indicated amount of the mRNA was injected in the animal half of 30 embryos at stage 2 of development. Embryos with large and/or apoptotic appearing cells surrounded by normally developed cells were counted after additional 5 hours of development (stage 8-9). […] Each percentage of vital embryos shown in the figure is the average of four independent experiments. FIG. 10C indicates the expression of V5-tagged hPin1 variants was evaluated by preparation of embryo lysate after 4 hours of injection of the respective mRNA (2 ng) in X. laevis embryos. Lysates were prepared in lysis buffer containing phosphatase and protease inhibitors. Samples were separated using SDS PAGE followed by western blot analysis. Endogenous XlPin1 and injected V5-tagged hPin1 variants were detected using an anti hPin1 PPIase domain antiserum as primary antibody and a horseradish peroxidase-conjugated secondary antibody. Visualization was done by a chemiluminescent reaction using the SuperSignal® substrate (Pierce). FIG. 10D depicts 250 pmol of peptide 17 was coinjected with 2 ng mRNA of the indicated V5-tagged hPin1 variant (whole volume 10 nl) in the animal half of 30 X. laevis embryos at stage 2 of development. Results were analyzed as described for FIG. 10B. Each percentage of vital embryos shown in the figure is the average of four independent experiments.
Microinjection was done into the animal half of X. laevis embryos at stage 2 of development. In every case, the injection volume was 10 nl. Immunofluorescence studies of frozen X. laevis embryo sections were performed as previously described (Julius et al., 2000). Ten-micrometer cryosections of stage 8 embryos were labelled using a monoclonal anti hPin1 antibody (mouse) followed by incubation with Alexa Fluor 546™-conjugated anti mouse antibody of goat serum (Molecular Probes). […]

The target in a further assay is hPar14 (Homo sapiens, UniProt Q9Y237). As to the kind of experiment: Protease coupled PPIase assay, hPar14. It is filed as biochemical. The conditions noted are these: up to 50 μM. As for the experimental part:
FIG. 6 depicts the influence of peptide 17 on the hPar14 PPIase activity. The apparent first order rate constant kobs determined for the cis to trans isomerization of the arginyl-prolyl peptide bond of the substrate Suc-Ala-Arg-Pro-Phe-NH-Np (SEQ ID NO: 3) was measured using the protease coupled PPIase assay. α-Chymotrypsin was used as isomer specific protease. As control, the nonphosphorylated derivative of peptide 17 was used.
PPIase activities were monitored on a Hewlett-Packard 8452A diode array spectrophotometer according to Fischer et al., 1984 and Zhang et al., 2002. The hPar14 PPIase activity was measured with Suc-Ala-Arg-Pro-Phe-NH-Np (SEQ ID NO: 3) (final concentration 75 μM) as substrate and α-chymotrypsin (final concentration 60 μM) as isomer specific protease. PPIase activity of hCyp 18 and FKBP12 were measured using Suc-Ala-Ala-Pro-Phe-NH-Np (SEQ ID NO: 7) as substrate (final concentration 16 μM) and α-chymotrypsin (final concentration 60 μM) as isomer specific protease. PPIase activity of hPin1 was measured with Ac-Ala-Ala-Ser(PO3H2)-Pro-Arg-NH-Np (SEQ ID NO: 4) (final concentration 10 μM) as substrate and trypsin (final concentration 60 μM) as isomer specific protease. Final concentrations of the PPIases were 1.7 μM for hPar14, 4 nM for hPin1, 7 nM for FKBP12 and 9.7 nM for hCyp18. […] Measurements were monitored at 390 nm. […]

Assay [2] has as its target T2, full-length hPin1 (human, UniProt Q13526 1-163). The experiment in a line: isothermal titration calorimetry, 10 °C, full-length hPin1 in the cell.
Assay [3] addresses T2, full-length hPin1. The experiment in a line: method not stated there (ITC value of paragraph 223 rounded); D isomer.
Assay [4] concerns the target T2, full-length hPin1. The experiment in a line: isothermal titration calorimetry, single binding site model. On the technique in general: ITC needs no label: the signal is the heat of the interaction.
The target of assay [5] is T2, full-length hPin1. The experiment in a line: comparison of Kd values.
Assay [6] deals with T2, full-length hPin1. The experiment in a line: cell-based or functional assay.
Assay [7] has as its target T2, full-length hPin1. The experiment in a line: inhibition of PPIase activity.
In assay [8] the target is T2, full-length hPin1. The experiment in a line: cell-based or functional assay. This is another data set of the same source.
For assay [9], the target named is T2, full-length hPin1. The experiment in a line: cell-based or functional assay. This is another data set of the same source.

Read-outs that look alike come from different tables or passages of the source. Square brackets hold non-standard residues; d marks the D form. * marks the point of attachment. Biotin = O=C1N[C@H]2[C@H](CS[C@H]2CCCCC(=O)*)N1; d(pT) = C[C@H](OP(=O)(O)O)[C@@H](N)C(=O)O; pT = C[C@@H](OP(=O)(O)O)[C@H](N)C(=O)O; 2Nal = N[C@@H](Cc1ccc2ccccc2c1)C(=O)O; Bta = N[C@@H](Cc1csc2ccccc12)C(=O)O; Pip = O=C(O)[C@@H]1CCCCN1; Bth = benzothiophene

T2 sequence (Q13526 whole entry): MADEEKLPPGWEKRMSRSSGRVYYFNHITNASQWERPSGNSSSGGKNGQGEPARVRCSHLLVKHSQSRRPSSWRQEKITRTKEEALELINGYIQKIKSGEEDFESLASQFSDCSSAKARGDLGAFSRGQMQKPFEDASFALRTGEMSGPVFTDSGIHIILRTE
T1 sequence (Q13526 whole entry): as above
Sequence of hPar14 (Q9Y237 whole entry): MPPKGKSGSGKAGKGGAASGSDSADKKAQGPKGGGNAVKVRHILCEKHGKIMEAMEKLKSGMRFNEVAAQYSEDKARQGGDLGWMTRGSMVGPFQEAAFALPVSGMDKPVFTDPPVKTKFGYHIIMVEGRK

On to “nonphosphorylated derivative of peptide 17: nonphosphorylated derivative of peptide 17, used as control (Ac-F[dT][Pip][2Nal]Q-NH2) [reference compound]”, for which the “influence on interaction of MPM-2 antigenes with GST-hPin1” value in assay [1] is listed as “had no effect”. Further, in the assay on X. laevis embryos, the “effect on development of the embryos” value is “no visible effect”. Moreover, the “inhibition of hPar14 PPIase activity” value with hPar14 is given as “No inhibition”.
In the assay with full-length hPin1 [2], “peptide 17, Ac-Phe-D-Thr(PO3H2)-Pip-Nal-Gln-NH2” showed a binding enthalpy ΔHbind of -4.56 kcal/mol and a binding entropy TΔSbind of 5.43 kcal/mol. In addition, in the assay with full-length hPin1 [3], the Kd is 19 nM. In the assay with full-length hPin1 [4], the Ka was 5.18e+07 M⁻¹ and the n (binding stoichiometry) was determined as 0.96. This molecule also yielded a fold tighter binding against Ac-Phe-L-Thr(PO3H2)-Pip-Nal-Gln-NH2 with full-length hPin1 [5] of 30 fold.

B1: peptide 15, Ac-Lys(N^ε-biotinoyl)-Ala-Ala-Bth-Thr(PO3H2)Pip-Nal-Gln-NH2 (peptide)
peptide: Ac-K(Biotin)AA[Bth][pT][Pip]AQ-NH2
modifications: not fully specified (residue 7); printed as Ac-Lys(N^ε-biotinoyl)-Ala-Ala-Bth-Thr(PO3H2)Pip-Nal-Gln-NH2
In the assay with full-length hPin1 [6], B1 had an IC50(µM), blockade of the PPIase activity of hPin1, protease free PPIase assay of 0.21 µM.
In the case of Ac-K(Biotin)AA[Bta][d(pT)][Pip][2Nal]Q-NH2 [peptide 16, Ac-Lys(N^ε-biotinoyl)-Ala-Ala-Bth-D-Thr(PO3H2)-Pip-Nal-Gln-NH2], in the assay with full-length hPin1 [7], the fold decrease of Ki against peptide 15 was 150 fold.
Take Ac-K(Biotin)AA[Bta][pT]P[2Nal]Q-NH2 [peptide 4]: the “fold decrease of inhibition of hPin1 PPIase activity against peptide 15” value with full-length hPin1 [8] turned out to be 100 fold. Further, the “IC50(µM), blockade of the PPIase activity of hPin1, protease free PPIase assay” value with full-length hPin1 [9] was 20 µM.
